Results reported in PMC9482650, “Quantitative fragmentomics allow affinity mapping of interactomes” (Nature Communications, 2022).

T1: RAPGEF6, Q8TEU7
T1 sequence (Q8TEU7 525-625, limits assumed, looked up): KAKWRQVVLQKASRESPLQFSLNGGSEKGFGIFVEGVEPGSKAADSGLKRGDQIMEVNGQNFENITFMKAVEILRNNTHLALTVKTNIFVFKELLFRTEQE

T2: MPP6, Q9NZW5
T2 sequence (Q9NZW5 125-219, limits assumed, looked up): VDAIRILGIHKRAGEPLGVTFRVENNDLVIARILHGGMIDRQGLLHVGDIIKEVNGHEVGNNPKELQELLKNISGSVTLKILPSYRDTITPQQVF

T3: APBA2_1, Q99767
T3 sequence (Q99767 563-664, limits assumed, looked up): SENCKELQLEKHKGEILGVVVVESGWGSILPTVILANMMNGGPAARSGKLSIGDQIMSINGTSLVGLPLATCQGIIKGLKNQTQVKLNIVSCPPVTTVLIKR

T4: HTRA4, P83105
T4 sequence (P83105 378-476, limits assumed, looked up): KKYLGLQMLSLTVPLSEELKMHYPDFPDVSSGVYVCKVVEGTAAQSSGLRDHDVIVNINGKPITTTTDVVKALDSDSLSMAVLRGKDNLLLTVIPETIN

T5: APBA3_1, O96018
T5 sequence (O96018 389-490, limits assumed, looked up): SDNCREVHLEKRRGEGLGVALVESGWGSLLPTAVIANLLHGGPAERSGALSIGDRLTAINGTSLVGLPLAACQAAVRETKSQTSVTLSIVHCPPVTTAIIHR

T6: TIAM2, Q8IVF5
T6 sequence (Q8IVF5 885-986, limits assumed, looked up): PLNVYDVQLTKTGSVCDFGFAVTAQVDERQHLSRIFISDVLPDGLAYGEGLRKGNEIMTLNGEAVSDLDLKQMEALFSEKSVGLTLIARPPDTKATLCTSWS

T7: GRIP1_7, Q9Y3R0
T7 sequence (Q9Y3R0 999-1096, limits assumed, looked up): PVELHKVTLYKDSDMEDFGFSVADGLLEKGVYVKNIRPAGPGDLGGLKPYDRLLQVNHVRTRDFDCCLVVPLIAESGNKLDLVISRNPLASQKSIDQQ

T8: LNX2_3, Q8N448
T8 sequence (Q8N448 463-564, limits assumed, looked up): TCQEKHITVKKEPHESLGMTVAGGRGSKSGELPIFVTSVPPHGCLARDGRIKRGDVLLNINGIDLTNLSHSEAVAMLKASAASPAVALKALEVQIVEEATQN

T9: SNTB1, Q13884
T9 sequence (Q13884 107-205, limits assumed, looked up): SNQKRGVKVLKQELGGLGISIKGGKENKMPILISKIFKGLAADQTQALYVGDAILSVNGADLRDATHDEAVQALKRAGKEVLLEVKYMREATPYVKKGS

T10: SNTG1, Q9NSN8
T10 sequence (Q9NSN8 52-150, limits assumed, looked up): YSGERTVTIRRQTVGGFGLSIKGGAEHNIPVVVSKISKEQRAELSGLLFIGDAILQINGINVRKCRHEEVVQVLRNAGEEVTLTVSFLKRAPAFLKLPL

T11: RADIL, Q96JH8
T11 sequence (Q96JH8 971-1071, limits assumed, looked up): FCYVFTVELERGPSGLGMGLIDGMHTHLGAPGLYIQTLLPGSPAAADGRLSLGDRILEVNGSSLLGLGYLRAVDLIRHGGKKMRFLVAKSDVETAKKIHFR

T12: PDZD2_2, O15018
T12 sequence (O15018 329-429, limits assumed, looked up): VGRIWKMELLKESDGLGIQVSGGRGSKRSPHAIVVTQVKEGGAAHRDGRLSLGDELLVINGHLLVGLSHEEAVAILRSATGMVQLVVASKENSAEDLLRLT

B1: GOT1L1, Q8NHS2 (peptide)
chain: EKKTLIGIKL
B2: PDGFRB, P09619 (peptide)
chain: PRAEAEDSFL

The binders below were run against DLG1_1, Q12959 (assay: holdup assay). Details: plain residues with an end cap or a label only (N-terminal biotin on a linker: ado-ado).
Set-up: key: below the threshold = too weak to quantify, mostly under pKd 3.1 to 4

| Binder | pKd |
| --- | --- |
| B1 | below the threshold |
| B2 | below the threshold |

The binders below were run against Inadl_3, Q8NI35 (assay: holdup assay). Details: plain residues with an end cap or a label only (N-terminal biotin on a linker: ado-ado).
Sequence of Inadl_3, Q8NI35 (Q8NI35 359-469): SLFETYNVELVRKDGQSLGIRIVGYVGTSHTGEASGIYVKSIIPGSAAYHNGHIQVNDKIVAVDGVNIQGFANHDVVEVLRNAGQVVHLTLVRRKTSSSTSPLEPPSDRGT
Set-up: key: below the threshold = too weak to quantify, mostly under pKd 3.1 to 4

| Binder | pKd |
| --- | --- |
| B1 | below the threshold |
| B2 | below the threshold |

Each binder was assayed against T1, RAPGEF6, Q8TEU7 (assay: holdup assay). Details: plain residues with an end cap or a label only (N-terminal biotin on a linker: ado-ado).
Set-up: key: below the threshold = too weak to quantify, mostly under pKd 3.1 to 4

| Binder | pKd |
| --- | --- |
| B1 | below the threshold |
| B2 | below the threshold |

The binders below were run against T2, MPP6, Q9NZW5 (assay: holdup assay). Details: plain residues with an end cap or a label only (N-terminal biotin on a linker: ado-ado).
Set-up: key: below the threshold = too weak to quantify, mostly under pKd 3.1 to 4

| Binder | pKd |
| --- | --- |
| B1 | below the threshold |
| B2 | 3.93 |

Each binder was assayed against T3, APBA2_1, Q99767 (assay: holdup assay). Details: plain residues with an end cap or a label only (N-terminal biotin on a linker: ado-ado).
Set-up: key: below the threshold = too weak to quantify, mostly under pKd 3.1 to 4

| Binder | pKd |
| --- | --- |
| B1 | below the threshold |
| B2 | 3.66 |

The binders below were run against T4, HTRA4, P83105 (assay: holdup assay). Details: plain residues with an end cap or a label only (N-terminal biotin on a linker: ado-ado).
Set-up: key: below the threshold = too weak to quantify, mostly under pKd 3.1 to 4

| Binder | pKd |
| --- | --- |
| B1 | below the threshold |
| B2 | 3.98 |

Each binder was assayed against T5, APBA3_1, O96018 (assay: holdup assay). Details: plain residues with an end cap or a label only (N-terminal biotin on a linker: ado-ado).
Set-up: key: below the threshold = too weak to quantify, mostly under pKd 3.1 to 4

| Binder | pKd |
| --- | --- |
| B1 | below the threshold |
| B2 | below the threshold |

What follows are binders tested against T6, TIAM2, Q8IVF5 (assay: holdup assay). Details: plain residues with an end cap or a label only (N-terminal biotin on a linker: ado-ado).
Set-up: key: below the threshold = too weak to quantify, mostly under pKd 3.1 to 4

| Binder | pKd |
| --- | --- |
| B1 | 3.57 |
| B2 | below the threshold |

Each binder was assayed against DLG4_1, P78352 (assay: holdup assay). Details: plain residues with an end cap or a label only (N-terminal biotin on a linker: ado-ado).
Sequence of DLG4_1, P78352 (P78352 62-152): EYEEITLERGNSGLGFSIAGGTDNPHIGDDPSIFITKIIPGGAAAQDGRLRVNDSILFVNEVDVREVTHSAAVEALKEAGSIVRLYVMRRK
Set-up: key: below the threshold = too weak to quantify, mostly under pKd 3.1 to 4

| Binder | pKd |
| --- | --- |
| B1 | below the threshold |
| B2 | 3.72 |

These binders were tested against Inadl_2, Q8NI35 (assay: holdup assay). Details: plain residues with an end cap or a label only (N-terminal biotin on a linker: ado-ado).
Sequence of Inadl_2, Q8NI35 (Q8NI35 238-335): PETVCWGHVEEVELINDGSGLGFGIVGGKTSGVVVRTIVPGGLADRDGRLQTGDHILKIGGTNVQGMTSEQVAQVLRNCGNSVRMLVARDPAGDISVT
Set-up: key: below the threshold = too weak to quantify, mostly under pKd 3.1 to 4

| Binder | pKd |
| --- | --- |
| B1 | below the threshold |
| B2 | below the threshold |

These binders were tested against PDLIM1, O00151 (assay: holdup assay). Details: plain residues with an end cap or a label only (N-terminal biotin on a linker: ado-ado).
Sequence of PDLIM1, O00151 (O00151 1-87): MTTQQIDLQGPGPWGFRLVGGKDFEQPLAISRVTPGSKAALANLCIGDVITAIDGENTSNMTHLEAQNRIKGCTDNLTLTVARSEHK
Set-up: key: below the threshold = too weak to quantify, mostly under pKd 3.1 to 4

| Binder | pKd |
| --- | --- |
| B1 | below the threshold |
| B2 | 3.54 |

Each binder was assayed against FRMPD2_2, Q68DX3 (assay: holdup assay). Details: plain residues with an end cap or a label only (N-terminal biotin on a linker: ado-ado).
Sequence of FRMPD2_2, Q68DX3 (Q68DX3 944-1038): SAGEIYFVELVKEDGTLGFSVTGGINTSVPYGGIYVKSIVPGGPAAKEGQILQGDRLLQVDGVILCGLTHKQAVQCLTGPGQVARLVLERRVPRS
Set-up: key: below the threshold = too weak to quantify, mostly under pKd 3.1 to 4

| Binder | pKd |
| --- | --- |
| B1 | below the threshold |
| B2 | 3.52 |

The binders below were run against LIMK2, P53671 (assay: holdup assay). Details: plain residues with an end cap or a label only (N-terminal biotin on a linker: ado-ado).
Sequence of LIMK2, P53671 (P53671 143-248): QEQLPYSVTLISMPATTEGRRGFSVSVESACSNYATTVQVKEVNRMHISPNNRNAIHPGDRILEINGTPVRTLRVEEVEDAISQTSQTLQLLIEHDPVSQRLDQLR
Set-up: key: below the threshold = too weak to quantify, mostly under pKd 3.1 to 4

| Binder | pKd |
| --- | --- |
| B1 | below the threshold |
| B2 | below the threshold |

Each binder was assayed against T7, GRIP1_7, Q9Y3R0 (assay: holdup assay). Details: plain residues with an end cap or a label only (N-terminal biotin on a linker: ado-ado).
Set-up: key: below the threshold = too weak to quantify, mostly under pKd 3.1 to 4

| Binder | pKd |
| --- | --- |
| B1 | below the threshold |
| B2 | below the threshold |

Each binder was assayed against GRIP2_5, Q9C0E4 (assay: holdup assay). Details: plain residues with an end cap or a label only (N-terminal biotin on a linker: ado-ado).
Sequence of GRIP2_5, Q9C0E4 (Q9C0E4 544-642): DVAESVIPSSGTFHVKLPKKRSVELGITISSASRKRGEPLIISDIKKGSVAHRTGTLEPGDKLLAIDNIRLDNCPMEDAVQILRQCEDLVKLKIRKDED
Set-up: key: below the threshold = too weak to quantify, mostly under pKd 3.1 to 4

| Binder | pKd |
| --- | --- |
| B1 | below the threshold |
| B2 | below the threshold |

What follows are binders tested against TJP1_3, Q07157 (assay: holdup assay). Details: plain residues with an end cap or a label only (N-terminal biotin on a linker: ado-ado).
Sequence of TJP1_3, Q07157 (Q07157 416-512): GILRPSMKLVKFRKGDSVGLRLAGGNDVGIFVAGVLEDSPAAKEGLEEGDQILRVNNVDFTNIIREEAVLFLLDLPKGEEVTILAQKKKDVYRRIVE
Set-up: key: below the threshold = too weak to quantify, mostly under pKd 3.1 to 4

| Binder | pKd |
| --- | --- |
| B1 | below the threshold |
| B2 | below the threshold |

Each binder was assayed against T8, LNX2_3, Q8N448 (assay: holdup assay). Details: plain residues with an end cap or a label only (N-terminal biotin on a linker: ado-ado).
Set-up: key: below the threshold = too weak to quantify, mostly under pKd 3.1 to 4

| Binder | pKd |
| --- | --- |
| B1 | below the threshold |
| B2 | 3.54 |

Each binder was assayed against T9, SNTB1, Q13884 (assay: holdup assay). Details: plain residues with an end cap or a label only (N-terminal biotin on a linker: ado-ado).
Set-up: key: below the threshold = too weak to quantify, mostly under pKd 3.1 to 4

| Binder | pKd |
| --- | --- |
| B1 | below the threshold |
| B2 | 3.64 |

What follows are binders tested against DLG5_1, Q8TDM6 (assay: holdup assay). Details: plain residues with an end cap or a label only (N-terminal biotin on a linker: ado-ado).
Sequence of DLG5_1, Q8TDM6 (Q8TDM6 617-713): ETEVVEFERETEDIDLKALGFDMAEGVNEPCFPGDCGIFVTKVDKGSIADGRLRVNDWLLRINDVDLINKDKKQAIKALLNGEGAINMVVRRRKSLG
Set-up: key: below the threshold = too weak to quantify, mostly under pKd 3.1 to 4

| Binder | pKd |
| --- | --- |
| B1 | below the threshold |
| B2 | 3.48 |

Each binder was assayed against Inadl_5, Q8NI35 (assay: holdup assay). Details: plain residues with an end cap or a label only (N-terminal biotin on a linker: ado-ado).
Sequence of Inadl_5, Q8NI35 (Q8NI35 673-780): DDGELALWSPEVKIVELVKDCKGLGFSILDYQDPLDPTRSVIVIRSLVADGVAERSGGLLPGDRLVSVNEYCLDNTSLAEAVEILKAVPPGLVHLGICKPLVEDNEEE
Set-up: key: below the threshold = too weak to quantify, mostly under pKd 3.1 to 4

| Binder | pKd |
| --- | --- |
| B1 | below the threshold |
| B2 | below the threshold |

What follows are binders tested against T10, SNTG1, Q9NSN8 (assay: holdup assay). Details: plain residues with an end cap or a label only (N-terminal biotin on a linker: ado-ado).
Set-up: key: below the threshold = too weak to quantify, mostly under pKd 3.1 to 4

| Binder | pKd |
| --- | --- |
| B1 | below the threshold |
| B2 | below the threshold |

The binders below were run against GRIP2_4, Q9C0E4 (assay: holdup assay). Details: plain residues with an end cap or a label only (N-terminal biotin on a linker: ado-ado).
Sequence of GRIP2_4, Q9C0E4 (Q9C0E4 446-548): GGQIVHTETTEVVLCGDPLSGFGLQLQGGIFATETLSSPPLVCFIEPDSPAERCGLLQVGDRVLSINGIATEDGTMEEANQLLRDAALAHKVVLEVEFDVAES
Set-up: key: below the threshold = too weak to quantify, mostly under pKd 3.1 to 4

| Binder | pKd |
| --- | --- |
| B1 | below the threshold |
| B2 | below the threshold |

What follows are binders tested against T11, RADIL, Q96JH8 (assay: holdup assay). Details: plain residues with an end cap or a label only (N-terminal biotin on a linker: ado-ado).
Set-up: key: below the threshold = too weak to quantify, mostly under pKd 3.1 to 4

| Binder | pKd |
| --- | --- |
| B1 | below the threshold |
| B2 | below the threshold |

What follows are binders tested against T12, PDZD2_2, O15018 (assay: holdup assay). Details: plain residues with an end cap or a label only (N-terminal biotin on a linker: ado-ado).
Set-up: key: below the threshold = too weak to quantify, mostly under pKd 3.1 to 4

| Binder | pKd |
| --- | --- |
| B1 | below the threshold |
| B2 | 4.43 |

The binders below were run against GRIP2_6, Q9C0E4 (assay: holdup assay). Details: plain residues with an end cap or a label only (N-terminal biotin on a linker: ado-ado).
Sequence of GRIP2_6, Q9C0E4 (Q9C0E4 648-740): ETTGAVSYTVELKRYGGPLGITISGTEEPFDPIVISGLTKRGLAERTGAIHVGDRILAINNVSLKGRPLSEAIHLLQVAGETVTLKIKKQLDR
Set-up: key: below the threshold = too weak to quantify, mostly under pKd 3.1 to 4

| Binder | pKd |
| --- | --- |
| B1 | below the threshold |
| B2 | below the threshold |
